Residue numbers refer to the chain shown, from its start.

This assay has as its target T1, human CD25 (human, UniProt P01589 22-272).
T1 construct: In the functional assays it was native on T cells or SUDHL-1 cells; also called huCD25; hCD25
T1 sequence: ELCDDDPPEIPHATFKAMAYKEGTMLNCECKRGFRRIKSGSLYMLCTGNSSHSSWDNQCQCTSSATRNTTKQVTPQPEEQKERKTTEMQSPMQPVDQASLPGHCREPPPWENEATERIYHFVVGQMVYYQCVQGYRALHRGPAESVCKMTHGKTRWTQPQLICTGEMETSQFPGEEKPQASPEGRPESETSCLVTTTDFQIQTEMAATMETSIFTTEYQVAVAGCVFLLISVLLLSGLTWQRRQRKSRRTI
The assay is described as follows: flow cytometry on HEK293 cells transiently transfected with huCD25; 3-fold dilutions from 500 nM; detection with anti-human IgG (Fc specific) FITC.

B1: B01 (antibody, V domains shown)
VH: QVQLVESGGGVVQPGRSLRLSCAASGFTFSNHAMAWVRQAPGKGLEWVAVISYDGSNKYYADSVKGRFTISRDNAKSTLYLQMNSLRAEDTAVYYCTTGLNSGYDWGQGTLVTVSS
VL: DIQMTQSPSSLSASVGDRVTITCRASQNISSFLNWYQQKPGEAPRRLIYGTNSLQSGVPSRFSGSGSGTDYTLTISSLQPEDFATYYCQQYNSWPWTFGQGTKLEIK
notes: detected with anti-human IgG (Fc specific); also called anti-CD25 antibody B01
In the case of B1, the binding result is “binds”.

B2: H07 (antibody, V domains shown)
VH: B1 VH with S77N, L100W
VL: B1 VL with N28S, I29V, S30N, E42K, N52S, N92T
notes: It was detected with anti-human IgG (Fc specific), and a human IgG1 isotype served as control; also called anti-CD25 antibody H07
As to B2, the binding result is recorded as “binds”.

B3: H08 (antibody, V domains shown)
VH: B1 VH with A75S, S77N
VL: B1 VL with N28S, I29V, F32Y, E42K, N92T
notes: detected with anti-human IgG (Fc specific); also called anti-CD25 antibody H08
As to B3, the binding result is “binds”.

B4: H02 (antibody, V domains shown)
VH: B1 VH with A61R, A75S, K76Q
VL: B1 VL with I29V
notes: detected with anti-human IgG (Fc specific); also called anti-CD25 antibody H02
Turning to B4, the binding result was “binds”.

B5: G09 (antibody, V domains shown)
VH: B1 VH with A61R, K76Q, S77N
VL: B1 VL with I29V
notes: detected with anti-human IgG (Fc specific); also called anti-CD25 antibody G09
For the molecule B5, the binding result is on record as “binds”.

B6: H01 (antibody, V domains shown)
VH: B1 VH with A75S, K76Q, S77N
VL: B1 VL with I29V, E42K, N52S, N92T
notes: detected with anti-human IgG (Fc specific); also called anti-CD25 antibody H01
Take B6: the binding result is “binds”.

The values above are taken from US20240002522A1 (INSERM INSTITUT NATIONAL DE LA SANTE ET DE LA RECHERCHE …, published 2024).
